Assay results published in the Human Domainome abundance scans (Beltran et al. 2025).

B1: Cytoplasmic polyadenylation element-binding protein 2, residues 513 to 575; numbered along this chain, Q7Z5Q1 (parent)
chain: KRVEVKPYVLDDQMCDECQGARCGGKFAPFFCANVTCLQYYCEFCWANIHSRAGREFHKPLVK

Variants of: B1
Experiment: abundance fitness (aPCA) (normalised: wild type 0, dead -1); higher = more abundant; growth selection in yeast, the domain comes from the species named
Details: Homo sapiens

Abundance fitness: each site, then its substitutions
A21: Y -0.32, W -0.41, D -0.159, L -0.203, T -0.117, P -0.52, F -0.23, H -0.238, C -0.447, E -0.037, Q -0.141, M -0.22, S -0.018, R -0.033, I -0.217, N -0.037, V -0.098
G25: E -0.195, C -0.349, S -0.138, D -0.082, P -0.321, Q -0.066, K 0.016, F -0.118, W -0.075, A -0.147, L -0.207, V -0.323, H -0.19, T -0.088, I -0.538, R -0.081, N -0.025, M -0.127
F30: D -0.318, E -0.415, V -0.219, Y 0.006, G -0.582, T -0.188, R -0.09, L -0.036, I -0.161, N -0.081, K 0.037, Q 0.016, A -0.261, C -0.322, P -0.621, S -0.195
C23: N -0.121, E -0.153, K -0.194, S -0.074, D 0.028, M -0.188, Q -0.24, G -0.056, P -0.229, L -0.285, A -0.154, T -0.095, R -0.185, F -0.409, V -0.328, Y -0.38, W -0.424
K26: S -0.079, M -0.1, Q -0.132, I -0.236, E -0.091, W -0.509, D -0.148, H -0.126, V -0.06, C -0.261, Y -0.404, G -0.082, A -0.016, R -0.027, T -0.073, L -0.138
E17: C -0.006, S -0.051, D -0.136, W -0.25, L -0.117, N -0.128, F -0.458, Q 0.09, P -0.366, R -0.059, T -0.22, V -0.061, M -0.188, H 0.018, G -0.081
G20: T -0.571, D -0.093, S -0.363, Y -0.598, L -0.944, F -0.987, Q -0.582, N -0.499, C -0.503, K -0.403, W -0.686, P -0.688, H -0.509, R -0.522, E -0.462, M -0.756, V -0.418, I -0.841, A -0.501
D16: P -0.129, S 0.193, M -0.089, C 0.053, I 0.042, G 0.137, E 0.047, R 0.015, F 0.145, Y 0.192, K 0.056, L -0.271, T 0.115, N 0.253, W -0.013, V -0.036, H 0.076
A28: S -0.321, G -0.314, L -0.497, M -0.445, H -0.495, Q -0.366, Y -0.985, W -0.381, F -0.498, C -0.674, T -0.364, D -0.484, I -0.337, R -0.233, V -0.287, K -0.094, E -0.289, P -0.208, N -0.459
A33: Y 0.009, M -0.18, G -0.047, H -0.177, F -0.336, V -0.124, E 0.077, Q 0.099, L -0.311, S 0.061, N 0.002, W -0.28, T 0.021, D 0.12, P -0.072, R -0.124, K -0.147
G24: M -0.275, Y -0.088, S -0.046, C -0.242, N 0.172, H -0.252, R -0.135, P -0.21, K -0.068, L -0.089, Q 0.066, T -0.325, A -0.052, V -0.083, E 0.018, W -0.278, I -0.418
C32: M -0.793, I -0.47, G -0.802, Q -0.742, R -0.739, L -0.882, W -0.929, T -0.779, P -0.737, N -0.724, Y -0.837, H -0.917, S -0.664, F -1.1, E -0.683, K -0.617
Q19: M -0.091, A -0.008, E 0.006, N -0.446, R -0.015, L 0.075, I -0.503, G -0.036, F -0.151, D -0.056, W -0.295, H -0.134, T -0.056, V -0.093, S -0.071, Y -0.224, P -0.579, C -0.22
F27: Q -0.045, T -0.053, P -0.01, Y -0.202, E -0.09, D -0.125, N -0.099, I -0.218, S -0.022, K 0.084, L -0.015, W -0.178, M -0.013, A 0.068, H -0.08, R -0.014, C 0.054, G -0.061, V -0.035
V35: D -0.091, H -0.037, E 0.063, C -0.253, K 0.002, M -0.334, A 0.039, I -0.088, G 0.058, F -0.115
P29: R -0.052, G -0.03, V -0.199, Y -0.122, C -0.147, W -0.293, Q 0.074, S 0.009, A 0.009, I -0.282, N -0.01, K -0.065, E -0.108, D -0.096, F -0.31
F31: D -0.962, T -0.57, G -0.685, P -0.588, W -0.04, L -0.328, Y 0.033, H -0.626, C -0.547, E -0.291, M -0.461, K -0.332, R -0.324, S -0.591, N -0.608, Q -0.425, A -0.644, V -0.622
N34: D -0.07, V -0.29, R -0.207, G -0.106, M -0.44, P -0.878, I -0.731, C -0.354, F -0.363, L -1.24, W -0.2, S -0.095, Q -0.207, E 0.043, Y -0.103, A -0.028, H -0.438, T -0.175
R22: W -0.332, S -0.04, K 0.006, N -0.032, M -0.026, E -0.222, C -0.419, F -0.363, D -0.289, T -0.283, P -0.504, L -0.128, G -0.303, H 0.077, A -0.126, V -0.343, Q 0.1, I -0.284
C18: R -0.641, P -0.84, T -0.643, L -0.966, E -0.658, H -1.01, Y -0.966, F -0.954, N -0.748, A -0.674, K -0.677, I -1.05, W -1.07, S -0.764
